Laboratory results reported in patent US20220242937A1 (CHANGCHUN GENESCIENCE PHARMACEUTICAL, published 2022).
Positions count from the first letter of the chain named.

B1: 066-4.26.14 (antibody, V domains shown)
VH: EVKLVESGGGLVKPGGSLKLSCAASGFTFRSYAMSWVRQTPEKRLEWVASISTTSNTYYPDSVKGRFTTSRDNARNIVYLQMSSLRSDDTAMYYCGRGVITNQAWFAYWGQGTLVTVSA
VL: DIVLTQSPATLSVTPGDSVSLSCRASQSISNNLHWYQQKSHESPRLLIKYASQSISGIPSRFSGSGSGTDFTLSVNNVGTEDFGMYFCQQSNSWPLTFGAGTKLELK
B2: mouse-human chimeric antibody 066-4.26.14-chAb (antibody, human IgG1, kappa, V domains shown)
VH: B1 VH
VL: DIVLTQSPATLSVTPGDSVSLSCRASQSISNNLHWYQQKSHESPRLLIKYASQSISGIPSRFSGSGSGTDFTLSVNNVGTEDFGMYFCQQSNSWPLTFGAGTKLELKR
B3: 066-4.26.14H2L3 (antibody, V domains shown)
VH: B1 VH with K3Q, K19R, R75K, I77S, S87A, D88E, M92V, L114T, A119S
VL: DIVLTQSPDFQSVTPKEKVTISCRASQSISNNLHWYQQKPDQSPKLLIKYASQSISGIPSRFSGSGSGTDFTLTINSLEAEDAAAYFCQQSNSWPLTFGPGTKVEIK
B4: 066-4.26.14H5L3 (antibody, V domains shown)
VH: EVQLVESGGGLVQPGGSLRLSCVASGFTFRSYAMSWVRQAPGKGLEWVASISTTSNTYYPDSVKGRFTTSRDNSKNTVYLQMSSLRAEDTAVYYCGRGVITNQAWFAYWGQGTLVTVSS
VL: B3 VL
B5: 066-4.26.14H5L2 (antibody, V domains shown)
VH: B4 VH
VL: DIVLTQSPATLSVSPGERATLSCRASQSISNNLHWYQQKPGQAPRLLIKYASQSISGIPARFSGSGSGTDFTLTISSLQSEDFAVYFCQQSNSWPLTFGGGTKVEIK
B6: 066-4.26.14H4L2 (antibody, V domains shown)
VH: B4 VH with V23A, S74A, T77S, A87D, V92M, T113I
VL: B5 VL
B7: 066-4.26.14H5L1 (antibody, V domains shown)
VH: B4 VH
VL: B5 VL with A19V, P40S, A60S, K103Q
B8: 066-4.26.14H2L2 (antibody, V domains shown)
VH: B4 VH with Q13K, V23A, A40T, G42E, G44R, S74A, T77S, L114T
VL: B5 VL

Target: human Aβ antigen (human)
Sequence (peptide, as listed by the source): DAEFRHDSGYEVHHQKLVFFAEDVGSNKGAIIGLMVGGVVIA
Assay: cell-based or functional assay

Binder	relative fluorescence intensity (ThT, Aβ polymerization; hIgG = 1.00)	relative value of LDH release (SHSY5Y cells with Aβ; hIgG = 1.00)
B1	0.7	1.2
B2	0.71	1.32
B3	0.67	1.42
B4	0.78	1.41
B5	0.67	1.26
B6	0.7	1.3
B7	0.68	1.37
B8	0.62	1.41
